Reference: article PMC12700780, “The PavDREB1E–PavD8–PavHY5 module integrates light and gibberellin signals to regulate sweet cherry anthocyanin biosynthesis”

B1: ProPavUFGT probe (dsDNA)
DNA 1: ACTTCACGAGCTCATCGACTAATAAGAAAG
DNA 2: CTTTCTTATTAGTCGATGAGCTCGTGAAGT
B2: ProPavCHS probe (dsDNA)
DNA 1: GGGAAAGAAATTAAGTCGGTAGATGATATT
DNA 2: AATATCATCTACCGACTTAATTTCTTTCCC
B3: ProPavDFR probe (dsDNA)
DNA 1: GTAATTACCACCGACCAAAAAAGAACATTG
DNA 2: CAATGTTCTTTTTTGGTCGGTGGTAATTAC

Assays:
[1] = target: PavDREB1E-GST (Prunus avium, UniProt A0A6P5RM44 1-238); test: EMSA; unlabeled probe competes; Chemiluminescent EMSA kit (Beyotime), manufacturer's instructions; 2 ug PavDREB1E-GST in PavD8 assays; buffer, salt, pH and temperature not stated; conditions: protein: recombinant; tags: GST; label: biotin; only one strand given
Sequence of PavDREB1E-GST (A0A6P5RM44 entry or part of it): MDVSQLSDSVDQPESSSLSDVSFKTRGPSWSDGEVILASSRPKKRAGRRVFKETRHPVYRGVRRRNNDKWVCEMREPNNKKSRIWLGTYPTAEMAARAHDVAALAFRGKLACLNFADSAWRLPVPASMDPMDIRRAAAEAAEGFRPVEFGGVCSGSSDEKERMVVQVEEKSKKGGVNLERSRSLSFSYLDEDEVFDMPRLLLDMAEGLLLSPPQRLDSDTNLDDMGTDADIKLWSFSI

[2] = target: PavDREB1E-GST;PavD8-GST (Prunus avium;Prunus avium, UniProt A0A6P5RM44;A0A6P5SVV0 1-238;1-537, |); test: EMSA; 2 ug PavDREB1E-GST with 2, 4, 6 ug PavD8-GST; PavD8 enhances the shifted band; Chemiluminescent EMSA kit (Beyotime), manufacturer's instructions; 2 ug PavDREB1E-GST in PavD8 assays; buffer, salt, pH and temperature not stated; conditions: protein: recombinant;recombinant; tags: GST;GST; label: biotin; only one strand given
Sequence of PavDREB1E-GST;PavD8-GST (chain, as listed by the source |, chain 1 of 2): as the sequence (A0A6P5RM44 entry or part of it) above
Sequence of PavDREB1E-GST;PavD8-GST (chain, as listed by the source |, chain 2 of 2): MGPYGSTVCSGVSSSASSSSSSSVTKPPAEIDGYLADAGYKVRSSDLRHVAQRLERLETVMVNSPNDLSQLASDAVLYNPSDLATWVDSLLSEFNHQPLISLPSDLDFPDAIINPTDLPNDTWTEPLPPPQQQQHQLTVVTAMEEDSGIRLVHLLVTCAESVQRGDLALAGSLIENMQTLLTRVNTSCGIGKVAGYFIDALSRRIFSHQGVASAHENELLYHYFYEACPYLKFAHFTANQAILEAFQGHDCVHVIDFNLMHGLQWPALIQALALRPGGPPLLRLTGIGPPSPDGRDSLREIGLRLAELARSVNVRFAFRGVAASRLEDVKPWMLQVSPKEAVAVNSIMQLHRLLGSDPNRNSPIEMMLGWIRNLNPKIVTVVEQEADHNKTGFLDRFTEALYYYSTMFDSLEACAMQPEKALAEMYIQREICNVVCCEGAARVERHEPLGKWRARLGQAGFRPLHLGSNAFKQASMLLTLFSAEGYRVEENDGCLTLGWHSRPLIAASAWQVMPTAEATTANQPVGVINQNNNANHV

Binder | binding result [1] | binding result [2]
B1 | binds | binds
B2 | binds | binds
B3 | binds | binds
